Experiments:
Experiment in all cases: Multiplex Interactome Assay (MPIA; bead-based, Luminex FLEXMAP 3D); runs D1-D4; baits ECD-hFc-ST3 on dimeric SC3 (SpyCatcher003-Cys) MagPlex beads, pooled; one prey a well: ECD-hFc-ST3 on 60-mer SC3-mi3 nanoparticles with GFP-V5-HA-ST3 adapter, 300 nM ECD where possible; 2 h at room temperature, 1% casein in 1x PBS; mouse anti-V5 and PE goat anti-mouse; read-out MFI; hit = seen in three of four runs
WFIKKN2-hFc-ST3 (human) = WFIKKN2-hFc-ST3 (human) (UniProt Q8TEU8)
PVR ECD-hFc-ST3 (human) = PVR ECD-hFc-ST3 (human) (UniProt P15151)
IGFBPL1-hFc-ST3 = molecular target: T1, IGFBPL1-hFc-ST3 (human, UniProt Q8WX77 26-278); conditions: both partners purified
T1 construct: Dimeric hFc-ST3 fusion behind the influenza HA signal peptide; prey on SC3-mi3 nanoparticles, bait on SC3 beads; source: Expi293, transfected, purified from supernatant (Ni-NTA / HisTrapFF); not shown: Fc (human IgG1, DAPA mutations), C-terminal, kept; FLAG, C-terminal, kept; SpyTag003, C-terminal, kept
T1 sequence (looked up): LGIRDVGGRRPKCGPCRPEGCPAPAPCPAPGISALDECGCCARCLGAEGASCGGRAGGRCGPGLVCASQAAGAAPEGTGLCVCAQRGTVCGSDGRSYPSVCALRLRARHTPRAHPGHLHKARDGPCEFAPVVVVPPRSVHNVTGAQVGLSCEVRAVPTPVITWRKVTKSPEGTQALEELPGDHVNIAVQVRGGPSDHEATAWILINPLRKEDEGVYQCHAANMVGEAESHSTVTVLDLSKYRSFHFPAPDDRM

IL6R ECD-hFc-ST3 = molecular target: T2, IL6R ECD-hFc-ST3 (human, UniProt P08887 20-365); conditions: both partners purified
T2 construct: IL6R (interleukin-6 receptor subunit alpha), human, extracellular domain; Dimeric ECD-hFc-ST3 fusion behind the influenza HA signal peptide; prey on SC3-mi3 nanoparticles, bait on SC3 beads; source: Expi293, transfected, purified from supernatant (Ni-NTA / HisTrapFF); not shown: Fc (human IgG1, DAPA mutations), C-terminal, kept; FLAG, C-terminal, kept; SpyTag003, C-terminal, kept
T2 sequence (looked up): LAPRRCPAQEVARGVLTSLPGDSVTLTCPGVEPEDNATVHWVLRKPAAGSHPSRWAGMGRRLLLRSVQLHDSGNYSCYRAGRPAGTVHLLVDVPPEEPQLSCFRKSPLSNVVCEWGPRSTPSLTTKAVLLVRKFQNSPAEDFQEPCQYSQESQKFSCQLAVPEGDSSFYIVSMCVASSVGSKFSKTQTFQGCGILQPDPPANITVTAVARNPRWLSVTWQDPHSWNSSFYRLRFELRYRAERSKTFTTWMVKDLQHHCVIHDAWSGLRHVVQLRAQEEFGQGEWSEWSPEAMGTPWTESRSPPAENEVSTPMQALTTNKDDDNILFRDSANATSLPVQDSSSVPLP

[1] = molecular target: PuncE11 ECD-hFc-ST3 (human) (UniProt Q8TDY8)
AXL ECD-hFc-ST3 = molecular target: T3, AXL ECD-hFc-ST3 (human, UniProt P30530 26-451); conditions: both partners purified
T3 construct: AXL (tyrosine-protein kinase receptor UFO), human, extracellular domain; Dimeric ECD-hFc-ST3 fusion behind the influenza HA signal peptide; prey on SC3-mi3 nanoparticles, bait on SC3 beads; source: Expi293, transfected, purified from supernatant (Ni-NTA / HisTrapFF); not shown: Fc (human IgG1, DAPA mutations), C-terminal, kept; FLAG, C-terminal, kept; SpyTag003, C-terminal, kept
T3 sequence (looked up): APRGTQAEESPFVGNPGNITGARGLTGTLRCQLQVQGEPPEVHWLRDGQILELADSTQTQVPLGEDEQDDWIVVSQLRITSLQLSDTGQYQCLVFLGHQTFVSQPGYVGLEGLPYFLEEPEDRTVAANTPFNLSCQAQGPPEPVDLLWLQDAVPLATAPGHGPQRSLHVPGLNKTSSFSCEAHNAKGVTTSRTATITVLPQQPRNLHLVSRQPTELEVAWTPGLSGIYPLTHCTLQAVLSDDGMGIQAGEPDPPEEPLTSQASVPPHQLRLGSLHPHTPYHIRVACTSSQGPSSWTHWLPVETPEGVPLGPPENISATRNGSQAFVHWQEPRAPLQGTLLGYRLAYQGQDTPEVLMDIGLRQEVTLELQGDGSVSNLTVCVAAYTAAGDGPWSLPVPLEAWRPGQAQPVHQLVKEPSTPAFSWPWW

PVR ECD-hFc-ST3 (human), sequence (P15151 21-343): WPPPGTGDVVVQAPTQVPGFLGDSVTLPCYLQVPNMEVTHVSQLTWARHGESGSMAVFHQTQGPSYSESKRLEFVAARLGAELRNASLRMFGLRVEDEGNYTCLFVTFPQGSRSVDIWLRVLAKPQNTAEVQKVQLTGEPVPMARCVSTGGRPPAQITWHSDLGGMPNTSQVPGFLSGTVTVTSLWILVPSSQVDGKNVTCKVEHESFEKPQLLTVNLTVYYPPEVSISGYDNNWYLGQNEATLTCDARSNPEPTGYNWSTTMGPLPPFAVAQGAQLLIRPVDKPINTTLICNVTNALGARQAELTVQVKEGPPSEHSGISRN

PuncE11 ECD-hFc-ST3 (from UniProt Q8TDY8 25-957) (Fc fusion)
MFI (WFIKKN2-hFc-ST3 (human)): > 7000

KIR2DL5 ECD-hFc-ST3 (from UniProt Q8N109 22-238) (Fc fusion)
MFI (PVR ECD-hFc-ST3 (human)): 5360

B1: DCC ECD-hFc-ST3 (Fc fusion, human, UniProt P43146 26-1097, looked up)
chain: HLQVTGFQIKAFTALRFLSEPSDAVTMRGGNVLLDCSAESDRGVPVIKWKKDGIHLALGMDERKQQLSNGSLLIQNILHSRHHKPDEGLYQCEASLGDSGSIISRTAKVAVAGPLRFLSQTESVTAFMGDTVLLKCEVIGEPMPTIHWQKNQQDLTPIPGDSRVVVLPSGALQISRLQPGDIGIYRCSARNPASSRTGNEAEVRILSDPGLHRQLYFLQRPSNVVAIEGKDAVLECCVSGYPPPSFTWLRGEEVIQLRSKKYSLLGGSNLLISNVTDDDSGMYTCVVTYKNENISASAELTVLVPPWFLNHPSNLYAYESMDIEFECTVSGKPVPTVNWMKNGDVVIPSDYFQIVGGSNLRILGVVKSDEGFYQCVAENEAGNAQTSAQLIVPKPAIPSSSVLPSAPRDVVPVLVSSRFVRLSWRPPAEAKGNIQTFTVFFSREGDNRERALNTTQPGSLQLTVGNLKPEAMYTFRVVAYNEWGPGESSQPIKVATQPELQVPGPVENLQAVSTSPTSILITWEPPAYANGPVQGYRLFCTEVSTGKEQNIEVDGLSYKLEGLKKFTEYSLRFLAYNRYGPGVSTDDITVVTLSDVPSAPPQNVSLEVVNSRSIKVSWLPPPSGTQNGFITGYKIRHRKTTRRGEMETLEPNNLWYLFTGLEKGSQYSFQVSAMTVNGTGPPSNWYTAETPENDLDESQVPDQPSSLHVRPQTNCIIMSWTPPLNPNIVVRGYIIGYGVGSPYAETVRVDSKQRYYSIERLESSSHYVISLKAFNNAGEGVPLYESATTRSITDPTDPVDYYPLLDDFPTSVPDLSTPMLPPVGVQAVALTHDAVRVSWADNSVPKNQKTSEVRLYTVRWRTSFSASAKYKSEDTTSLSYTATGLKPNTMYEFSVMVTKNRRSSTWSMTAHATTYEAAPTSAPKDLTVITREGKPRAVIVSWQPPLEANGKITAYILFYTLDKNIPIDDWIMETISGDRLTHQIMDLNLDTMYYFRIQARNSKGVGPLSDPILFRTLKVEHPDKMANDQGRHGDGGYWPVDTNLIDRSTLNEPPIGQMHPPHGSVTPQKNSN
notes: DCC (netrin receptor DCC), human, extracellular domain; Dimeric ECD-hFc-ST3 fusion behind the influenza HA signal peptide; prey on SC3-mi3 nanoparticles, bait on SC3 beads; source: Expi293, transfected, purified from supernatant (Ni-NTA / HisTrapFF); not shown: Fc (human IgG1, DAPA mutations), C-terminal, kept; FLAG, C-terminal, kept; SpyTag003, C-terminal, kept
MFI (IGFBPL1-hFc-ST3): > 7000

B2: TIGIT ECD-hFc-ST3 (Fc fusion, human, UniProt Q495A1 22-141, looked up)
chain: MMTGTIETTGNISAEKGGSIILQCHLSSTTAQVTQVNWEQQDQLLAICNADLGWHISPSFKDRVAPGPGLGLTLQSLTVNDTGEYFCIYHTYPDGTYTGRIFLEVLESSVAEHGARFQIP
notes: TIGIT, human, extracellular domain; Dimeric ECD-hFc-ST3 fusion behind the influenza HA signal peptide; prey on SC3-mi3 nanoparticles, bait on SC3 beads; source: Expi293, transfected, purified from supernatant (Ni-NTA / HisTrapFF); not shown: Fc (human IgG1, DAPA mutations), C-terminal, kept; FLAG, C-terminal, kept; SpyTag003, C-terminal, kept
binding result (IL6R ECD-hFc-ST3): binds

B3: WFIKKN2-hFc-ST3 (Fc fusion)
chain: LPPIRYSHAGICPNDMNPNLWVDAQSTCRRECETDQECETYEKCCPNVCGTKSCVAARYMDVKGKKGPVGMPKEATCDHFMCLQQGSECDIWDGQPVCKCKDRCEKEPSFTCASDGLTYYNRCYMDAEACSKGITLAVVTCRYHFTWPNTSPPPPETTMHPTTASPETPELDMAAPALLNNPVHQSVTMGETVSFLCDVVGRPRPEITWEKQLEDRENVVMRPNHVRGNVVVTNIAQLVIYNAQLQDAGIYTCTARNVAGVLRADFPLSVVRGHQAAATSESSPNGTAFPAAECLKPPDSEDCGEEQTRWHFDAQANNCLTFTFGHCHRNLNHFETYEACMLACMSGPLAACSLPALQGPCKAYAPRWAYNSQTGQCQSFVYGGCEGNGNNFESREACEESCPFPRGNQRCRACKPRQKLVTSFCRSDFVILGRVSELTEEPDSGRALVTVDEVLKDEKMGLKFLGQEPLEVTLLHVDWACPCPNVTVSEMPLIIMGEVDGGMAMLRPDSFVGASSARRVRKLREVMHKKTCDVLKEFLGLH
MFI [1]: > 7000

B4: ILRL1 ECD-hFc-ST3 (Fc fusion, human, UniProt Q01638 19-328, looked up)
chain: KFSKQSWGLENEALIVRCPRQGKPSYTVDWYYSQTNKSIPTQERNRVFASGQLLKFLPAAVADSGIYTCIVRSPTFNRTGYANVTIYKKQSDCNVPDYLMYSTVSGSEKNSKIYCPTIDLYNWTAPLEWFKNCQALQGSRYRAHKSFLVIDNVMTEDAGDYTCKFIHNENGANYSVTATRSFTVKDEQGFSLFPVIGAPAQNEIKEVEIGKNANLTCSACFGKGTQFLAAVLWQLNGTKITDFGEPRIQQEEGQNQSFSNGLACLDMVLRIADVKEEDLLLQYDCLALNLHGLRRHTVRLSRKNPIDHHS
notes: The label ILRL1 is printed once only; Dimeric ECD-hFc-ST3 fusion behind the influenza HA signal peptide; prey on SC3-mi3 nanoparticles, bait on SC3 beads; source: Expi293, transfected, purified from supernatant (Ni-NTA / HisTrapFF); not shown: Fc (human IgG1, DAPA mutations), C-terminal, kept; FLAG, C-terminal, kept; SpyTag003, C-terminal, kept
MFI (AXL ECD-hFc-ST3): 5780

Source: doi:10.1101/2025.07.09.663943, “A multiplex extracellular interactome screening method employing high-avidity nanoparticles” (bioRxiv, 2025)
